This data set in a line: yeast display, Sf9 membrane polyspecificity reagent, FACS + sequencing; frameworks hold sequencing errors. In outline:
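A synthetic nanobody library was expressed on Saccharomyces cerevisiae BJ5465 by galactose induction for 36–48 hours. The library was stained for 1 hour at 4 °C with 10% biotinylated, detergent-solubilized Sf9 membrane reagent and enriched with streptavidin microbeads before FACS. Low and high (top ~1%) gates were set on anti-HA fluorescence for expression and streptavidin fluorescence for reagent binding, and each polyreactivity label reflects the gate of origin.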
Regarding “QVQLVESGGGLVQAGGSLRLSSAGSGSTLGFNAMGWYRQAPGKEREFVAGNSASGSSTYFADSVKGRFTISRDNAKNTVYLHINSLKTEDSAVYYFYARVRVRLGRNWSTYYYWGQGTEVTVSS”, the “polyreactivity (PSR sort gate)” value was “high polyreactivity”.

Regarding “KVQLEESGGGLVQSGGILRLSCAASGSTLWSNTMGWYRQEQGKERELVDAISSGGGSTYADSVKGRFTISRDNAKNTVYLQMNSLKPEDTAVFYCAASAYYYRHSSWHRSDYWGQGTQVTVSS”, the “polyreactivity (PSR sort gate)” value is recorded as “high polyreactivity”.

Regarding “QVQLVESGGGLVQAGGSLRLSCAASGFTLYYYAMGGYRQAPGKERELVAAISYSGGTTYYADSVKGRFTISRDNAKNTVYLLMYSLKPEDTAVYYCAAGFYSYSWYVKLAYGYWGQGIQVTVSS”, the “polyreactivity (PSR sort gate)” value is recorded as “low polyreactivity”.

Take “QVQLVESGGGIVQAGGSLRLSCAASGRTLISYAMGWYRQAPGKERELVAAISWGGSSTYYADSVKWRFTISRDNAKNTVYLQRNSLKPEDTAVYYCNTVYYYWGKWRGTYDYWGLGTQVTVSS”: the “polyreactivity (PSR sort gate)” value is “high polyreactivity”.

With “QVQLVESGGGLVQAGGSLRLSCAASGSIFGKYVMGWYRQAPGKERELVAAITFGGGSTYYADSVKGRFTISRDNAKNTVYFQMNSLKPEDTAVYYCAAKSYDERLYRRPRDYWGQGTQVTVSS”, the “polyreactivity (PSR sort gate)” value is “high polyreactivity”.

Turning to “QVQLVESGGGLVQAGGSLRLSCAASGSIFPKYAKGWYRQAPGKEREMVAAINWRGVSTYYADSVKGRFTISRDNAKNTVYLQMNSLKPEDTAVYYCAADLLHTRQFGYWGQGTQVTVSS”, the “polyreactivity (PSR sort gate)” value is “low polyreactivity”.

Regarding “QVQLVESGVGLVQPGGSLRLIRAAYGRILRDYDMGWYSTAPRKERELVAAINWSDGSTYYADSVKGRFTISRDNAKYTVYLQMNCQKPVDTAVYYCAAEPYVFGLSSKRFWYNYWGQGTEVTVSS”, the “polyreactivity (PSR sort gate)” value was “low polyreactivity”.

With “QVQLVESGGGLVQAGGSLRLSCAASGRIFPLYTMGWYRQAPGKERELVAAISVSGGRTSYADSVKGRFTISRDNAKNTVYLQMNSLKPEDTAVYSCAARYYVTSYFSSMYYWGQGTQVTVSS”, the “polyreactivity (PSR sort gate)” value is “high polyreactivity”.

In the case of “QVQLVESGGGLVQAGGSLRLSCAASGLTIQNNAMGWYRQAPGKERDLVAVITRIGGSTYYADSVKGRFTISRDYEKNTVYLQMNSLKPEDTAVYYCAAGYRTRRRLHVYWGQGTQVTVSS”, the “polyreactivity (PSR sort gate)” value was “high polyreactivity”.

On to “QVQLVESGGGLVQAGGSLRLSCAASGNNFETNAMGWYRQAPGKERELVAAISASGGSTYYADSVKGRFTISRDYAKNTVYLQMNSLKPEDTAVYYCAARRAVRLYYWGQGTQVTVSS”, for which the “polyreactivity (PSR sort gate)” value is listed as “high polyreactivity”.

On to “QVQLVESGGGLVQAGGSLRLSCAASGSIFPYNDMGWYRQAPGKERELVAAISDSAGSTYYADSVKGRFTISRDNAKNTVYLQMNSLKPEYTAVYYCADYDYWGQGTQVTVSS”, for which the “polyreactivity (PSR sort gate)” value is reported as “low polyreactivity”.

Consider “QVQLVESGGGLVQAGGSLRLSCAAYGITFEVNAMGWYRQAPGKERELVAAINSSVASTYYADSVKGRFTISRDNAKNTVDLQMNSLKPEDTAVYYCAAQGKGGTEYGYGYWGQGTQVTVSS”, for which the “polyreactivity (PSR sort gate)” value is recorded as “low polyreactivity”.

On to “QVQLVESGGGLVQAGGSLRLSCAASGSTLARNVMGWYRQAPGKERELVAAISTSGGITYYADSVKGRFTISRDNAKNTVYLQMNSLKPEDTADYYCAKYYYNPYSKMDYWGQGTQVTVSS”, for which the “polyreactivity (PSR sort gate)” value is “low polyreactivity”.

As for “QVQLVESGGGLVQAGGSLRLSCAASGGILSYNTMGWYRQAPGKERELVAAITSSGGRTYYADSVKGRFTISRDNAKNTVYLQMNSLKPEDTAVYYCNTVYYFTYYYWGQGTQVTVSS”, the “polyreactivity (PSR sort gate)” value was “high polyreactivity”.

Regarding “QVHLVESGGGLVQAGGSLRLSCAASGFLFRTYAMGWYRPGPGKERELVDAISNDANTKYADSVKGRFTISRDNAKNTVYLQMNSLKPEDTAVYYGAAKAIYRGRYLKIVKVGYWGQGTQVTVSS”, the “polyreactivity (PSR sort gate)” value is recorded as “high polyreactivity”.

As to “QVQLVESGGGLVQAGGSLRLSCAASGRIFLINAMGWYRQAPGKERELVAAITSSGGSTYYADSVKGRFTISRDNAKNTVYLQMNSLKPEDTAVYYCATRSYRGRPYNYWGQGTQVTVSS”, the “polyreactivity (PSR sort gate)” value is listed as “high polyreactivity”.

On to “QVQLVESGGGLVQAGGSLRLSCAASGFIFSSYAMGWYRQAPGKEMELVAAISWSGGRTYYADPVKGRFTISRDNAKNTVYLQLNSLKPEDTAVYYCNARYPYPYWYTSYDYWGQGTQVTVSS”, for which the “polyreactivity (PSR sort gate)” value is “high polyreactivity”.

As to “QVHLVESCGGLVQAGGSLRLSCAASGNTFVYNDMGWYRQAPGKERELVDDIRYSGSTYYADSVKGRFTISRDNAKNTVYLQMNSLKPEDTAVYYCAKAYYVLSWMGYWGQGTQVTVSS”, the “polyreactivity (PSR sort gate)” value was “low polyreactivity”.

For “QVQLVESGGGLVQAGGSLRLSCAASGRTFGAYTMGGYRQAPGKDRELVAAISSGTRTNYADSVKGRFTISRDNAKNTVYLQMNSLIPEDTAVYYCAATVLGHNRVYYWGQGTQVTVSS”, the “polyreactivity (PSR sort gate)” value was “low polyreactivity”.

For “QVQLVESGGGLVQAGGSLRLSCAASGYIFNGNAMGWYRQAPGKERELVATITRRGGSTYYADSVKGRFTISRDNAKNTVYLQMNSLKPEDTAVYYCNKRDYSGDYYGPLDYWGQGTQVTVSS”, the “polyreactivity (PSR sort gate)” value was “high polyreactivity”.

On to “QVQLVESGGRLVQAGRSLRLSCAASGSTFYLYAMGWYRQAPGKERELVASISIGGSTNYADSVKGRFTISRDNAKNTVYLQMNSLKPEDTAVYYCNADYYYVRTVRRLGYWGQGSQVTVSS”, for which the “polyreactivity (PSR sort gate)” value is reported as “low polyreactivity”.

As for “QVQLVESGGGLVQAGGRLRLSCPASGLIFSYYAMGWYRQEPGKERELVAAISRGGSTNYADSVKGRFTISRDNAKNTVYLQMNSLKPEDTAVYYCAARFVLRRDYGYWGQGTQVTVSS”, the “polyreactivity (PSR sort gate)” value was “high polyreactivity”.

For “QVQLVESGGGLVQAVGSHRLSCAASGFIFTSYAMGWYRQAPGKERELVAAITRSGGRTYYADSVKGRFTISRDNAKNTVYLQMNSLKPEDTAVYYCAAVTFYQSPARGYWGQGTQVTVSS”, the “polyreactivity (PSR sort gate)” value is on record as “high polyreactivity”.

Consider “QVQLVESGGGLVQAGGSLRLSCAASGSIFRSYAMGWYRQAPGKERELVAAISRRGGSTYYADSVKGRFTISRDNAKNTVYLQMNSLKPADTGVYYCAAVRYNSRVSTTPSDMYYWGQGTQVTVSS”, for which the “polyreactivity (PSR sort gate)” value is on record as “low polyreactivity”.

On to “QVQLVESGGGLVQAGGSLRLSCAASGGTFWVYAMGWYRQAPGKERELVAAIRWRGGRTYYADSVKGRFTISRDNAKNTVYLQMNSLKPEDTAVYYCAATTWRSGRYNYWGQGTQVTVSA”, for which the “polyreactivity (PSR sort gate)” value is listed as “high polyreactivity”.

For “QVQLVESGGGLVQAGGSLRLSCAASGSTFTNYAMGWYRQAPGKERELLAAINNDRTNYADSVKGRFTISRDNAMNTVYLQMNSLKPEDTAVYYCAARLGGRRRFGYWGQGTQVTVSS”, the “polyreactivity (PSR sort gate)” value is reported as “high polyreactivity”.

With “QVQRVESGGGLVQAGGSLRLSCAASGSTFSSYAMGWYRQAPWKERELVAAISRSGGSTHYADSLKGRFTISRDNAKNTVYLQMNSLKPEDSAVYYCAADTGRYLDSNYWGQGTQVTVSS”, the “polyreactivity (PSR sort gate)” value was “high polyreactivity”.

For the sequence “QVHLVESGGGLVQAGGSLRLSCAASGRTFPYTAMGSYRQAPGKERELVAAISSGGSTNYADSVKGRFTISRDNAKNTVYLQMNSLKPEDTAVYYCATKYQRRPYRYYYWGQGTQVSVSS”, the “polyreactivity (PSR sort gate)” value is reported as “low polyreactivity”.

Regarding “QVQLVESGGGLVQAGGSLRLSCAASASIFRSYAMGWYRQAPGKERELVAAISWRGDSTYYADSVKGRFTISRDNAKHTVYLQMNSLKPEDTAVYYCNVQRSLRMDYWGQGTQGTVSS”, the “polyreactivity (PSR sort gate)” value is “high polyreactivity”.

Take “QVQLVESGGGLVQAGGSLRLSCAASGRIFPRNTMGWYRQATGKERELVAAISVSGGSTYYADSVKGRVTISRDNAKNTVYLQMNRLKPEDTAVFFCAAAKCYRSGSWYEYWGQGTQVTVSS”: the “polyreactivity (PSR sort gate)” value is reported as “high polyreactivity”.

For “QVQLVESGGGLVQAGGSLRLSCAASGSTFWFYAMGWYRQAPGKERELVAVISNSGSTYYADSVKGRFTISRDNAKNTVYLQMNSLKPEDTAVYYCNKDGGGDSYWYDYWGQGTLVTVSS”, the “polyreactivity (PSR sort gate)” value was “low polyreactivity”.

Regarding “QVQLQESGGGLVQAGGSLGCAASCNISTRSEMGWYRQAPGKEREFVATINSGGITNYADSLKGRFTISRDNAKNTVYLRKNSLKAEVTAVYYRAVYGYFSYPYDYWGQGTQVSVSS”, the “polyreactivity (PSR sort gate)” value is on record as “low polyreactivity”.

With “QVQLVESGGGLVQAGGSLRLSCAASGGTLYRYAMGWYRQAPGKERELVAGISSSGGRTYNADSVKGRFTISRDNAKNTVYLQMNSLIPEDTAVYYCAKYWVSSYDYWGQGTQVTVSS”, the “polyreactivity (PSR sort gate)” value was “high polyreactivity”.

Turning to “QVQLVESGGGLVQAGGSLRLSCAASGSTFGGYAMGWYRQAPGKERELVAAISNGDRTNYADSVKGRFTISRDNAKNTVYLQMNSLKPEDTAVYYCATQPLTWSSYRWDWRAQFDHWGQGTQVTVSS”, the “polyreactivity (PSR sort gate)” value is “low polyreactivity”.

For the sequence “QVQLVESGGGLVQAGGSLRLSCAASGSIFSIYAMGWYRQAPGKERELVAAISWSGGSTYYADSVKGRFTISRDTAKITVYLQMNSLKPEDTAVYYCAAEYEYMWSQYLTEYGYDYWGQGTQVTVSS”, the “polyreactivity (PSR sort gate)” value was “low polyreactivity”.

Regarding “QVQLVESGGGLVQAGGSLRLSCAASGSTFWYYAMGWYRQAPGKERELVAAITTGGDTTNYADSVKGRFTISRDNAKNTVYLQMNSLKPEDTAVYYCARDTGYDLIVLPDDSWGQGTQVTVSS”, the “polyreactivity (PSR sort gate)” value was “low polyreactivity”.

In the case of “QVQLVESGGGLVQAGGSLRLSCAASGRIFGDYALGWYRQAPGKERELVAAISWSDGSTYYADSVKGRFTISRDKAKNTVYLQMNSLKPEDTAVYYCAAYGWGYSYVDVVVSDFYYWGQGTQVTVSS”, the “polyreactivity (PSR sort gate)” value is “low polyreactivity”.

With “QVQLVESGGGLVQAGGSLRLSCAASGFTFYINVMGWYRQATGKERELVAAITSSGTTNYADSVKGRFTISRDNAKNTVYLQMNSLKPEDTAVYYCAKRSYGGTLHYAFDSWGQGTQVTVSS”, the “polyreactivity (PSR sort gate)” value was “low polyreactivity”.

On to “QFQLVESGGGLVQAGGSLRLSCAAYGFTFYAYTMGWYRQAPGKERELVAAIRTGSSTYYADSVKGRFTISRDNAKNTVYLQMNSMKPQDTAVYYCAAPRWRRPYRYDYWGQGTQVTVSS”, for which the “polyreactivity (PSR sort gate)” value was “high polyreactivity”.

As to “QVQLVESGGGLVQAGGSLRLSCAASGRIFSFNAMGWYRQAPGKERELVAGITYGGNTYYADSVKGRFTISRDNAKNTVYLQMNSLKPEDPAVYYCAAVRGGRHDYWGQGTQVTVSS”, the “polyreactivity (PSR sort gate)” value is on record as “low polyreactivity”.

Turning to “QVQLVESGGGLVQSGGSLRLSCAASGYTFLEYTMGWYRQAPGKERELVAAITSGGSTKYADSVKGRFTISRDNAKNTVYLQMNSLKPEDTAVYYCNARHYSREFDYWGQGTQVTVSS”, the “polyreactivity (PSR sort gate)” value was “low polyreactivity”.

The values above are taken from the nanobody polyreactivity screen of Harvey et al. (2022).
